Measured values taken from the supplement of paper PMC7125110.
± gives the standard error. Variants at the floor of the assay were thinned out.

B1: glmS ribozyme (parent)
chain: AUAAAAGCGCCAGAACUACAGAAAUGUAGUUGACGAGGAGGAGGUUUAUCGAAUUUUCGGCGGAUGCCUCCAAA

Experiments:
Settings in all cases: with glucosamine-6-phosphate
glucosamine-6-phosphate [1] = variants of: B1; experiment: self-cleavage kobs at 40 uM GlcN6P; higher = faster cleavage; RNA array
Summary of the method: (§1)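 Ribozyme variants carrying barcodes were transcribed in situ on sequenced MiSeq chips by E. coli RNA polymerase and tracked at 37 °C with a hybridised Cy3 probe. They were exposed to 40 μM to 10 mM glucosamine-6-phosphate in HEPES/KCl/Mg(OAc)2 buffer. kobs came from exponential decay fits of normalised per-tile medians, and kcat and KM from weighted Michaelis–Menten fits.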

glucosamine-6-phosphate [2] = variants of: B1; experiment: self-cleavage kobs at 640 uM GlcN6P; higher = faster cleavage; RNA array
Summary of the method: as §1

glucosamine-6-phosphate [3] = variants of: B1; experiment: self-cleavage kobs at 10000 uM GlcN6P; higher = faster cleavage; RNA array
Summary of the method: as §1

glucosamine-6-phosphate [4] = variants of: B1; experiment: self-cleavage kobs at 160 uM GlcN6P; higher = faster cleavage; RNA array
Summary of the method: as §1

glucosamine-6-phosphate [5] = variants of: B1; experiment: self-cleavage kobs at 2500 uM GlcN6P; higher = faster cleavage; RNA array
Summary of the method: as §1

Variant	self-cleavage kobs at 40 uM GlcN6P (glucosamine-6-phosphate [1]) [s⁻¹]	self-cleavage kobs at 640 uM GlcN6P (glucosamine-6-phosphate [2]) [s⁻¹]	self-cleavage kobs at 10000 uM GlcN6P (glucosamine-6-phosphate [3]) [s⁻¹]	self-cleavage kobs at 160 uM GlcN6P (glucosamine-6-phosphate [4]) [s⁻¹]	self-cleavage kobs at 2500 uM GlcN6P (glucosamine-6-phosphate [5]) [s⁻¹]
AUAAAAGUGCCAGAACUACAGAAAUGUAGUUGACGAGGACGAGGUUUAUCGAAUUUUCGGCGGAUGCCUCCAAA [C8U G40C]	< 1e-05	< 1e-05	< 1e-05	–	–
AUAAAAGUGCCAGAACUACAGAAAUGUAGUUGACGAGGAGGAUGUUUAUCGAAUUUUCGGCGGAUGCCUCCAAA [C8U G43U]	< 1e-05	–	< 1e-05	< 1e-05	< 1e-05
AUAAAAGUGCCAUAACUACAGAAAUGUAGUUGACGAGGCGGAGGUUUAUCGAAUUUUCGGCGGAUGCCUCCAAA [C8U G13U A39C]	< 1e-05	–	–	–	–
AUAAAAGUGCCAGAGCUACAGAAAUGUAGUUGACGAGGAGGAGGUUUAUCGAAUUUUCGGCGGAUGCCUCCAAA [C8U A15G]	< 1e-05	< 1e-05	< 1e-05	< 1e-05	–
AUAAAAGUGCCAGAACUACAGAAAUGUAGUUGACGAGCAGGAGUUUUCUCGAAUUUUCGGCGGAUGCCUCCAAA [C8U G38C G44U A48C]	< 1e-05	–	–	–	–
AUAAAAGUGCCAGAACUACAGAAAUGUAGUUGACGAGGAGGAGGUUUGUCGAAUUUUCGGCGGAUGCCUCCAAA [C8U A48G]	< 1e-05	–	< 1e-05	< 1e-05	< 1e-05
AUAAAAGUGCCAGAACUACAGAAAUGUAGUUCACGAGGAGGAGGUUUAUCGAAUUUUCGUCGGAUGCCUCCAAA [C8U G32C G60U]	< 1e-05	< 1e-05	< 1e-05	< 1e-05	< 1e-05
AUAAAAGUGCUAGAACUACAGAAAUGUAGUUGACGAGGAGGAGGCUUAUCGAAUUUUCGGCGCAUGCCUCCAAA [C8U C11U U45C G63C]	< 1e-05	–	–	–	–
AUAAAAGUUCCAGAACUACAGAAAUGUAGGUGACGAGGAGGAGGUUUAUCGAAUUUUCGGCGGCUGCCUCCAAA [C8U G9U U30G A64C]	< 1e-05	–	< 1e-05	–	–
AUAAAAGUGCCAGAACUACAGAAAUGUAGUUGACUAGGAGGAGGUUUAUCGAAUUUUCGGCGGAUGCCUCCAAA [C8U G35U]	< 1e-05	< 1e-05	< 1e-05	< 1e-05	< 1e-05
AUAAAAGUGCCAGAACUACAGAAAUGUAGUUGAUGAGGAGGAGGUUUAUCGAAUUUUCGGCGGAUGCCUCCAAA [C8U C34U]	< 1e-05	< 1e-05	< 1e-05	–	–
AUAAAAGUGCCAGAACUACAGAAAUGUAGUUGACGAGUAGGAGGUUUAUCGAAUUUUCGGCGGAUGCCUCCAAA [C8U G38U]	< 1e-05	–	–	< 1e-05	< 1e-05
AUAAAAGUGCCAGAACUACAGAAAUGUAGUUGACGACGAGGAGGUUUAUCGAAUUUUCGGCGGAUGCCUCCAAA [C8U G37C]	< 1e-05	< 1e-05	< 1e-05	< 1e-05	< 1e-05
AUAAAAGUGACAGAACUACAGAAAUGUAGUUGACGAGGACGAGGUUUAUCGAAUUUUCGGCGGAUGACUCCAAA [C8U C10A G40C C67A]	< 1e-05	–	–	–	–
AUAAAAGUGCCAGAACUACAGAAAUGUAAUUGACGAGGAUGAGGAUUAUCGAAUUUUCGGCGGAUGCCUCCAAA [C8U G29A G40U U45A]	< 1e-05	–	< 1e-05	–	–
AUAAAAGUGCCAGAAGUACAGAAAUGUAGUUGACGAGGAGGAGGUUUAUGGAAUUUUCGGCGGAUGCCUCCAAA [C8U C16G C50G]	0.000158 ± 3.8e-05	–	8.29e-05 ± 1.9e-05	–	–
AUAAAAGUGCCAGAACUACAGAAAUGUAGUUGACGAGGAGGAGGUUUAUCGAAUUUUCGGCGGAUGCUUUCAAA [C8U C68U C70U]	< 1e-05	–	< 1e-05	–	–
AUAAAAGUGCCAGAACUACAGAAAUGUAGUUGACGAGGAGGAGGCUUAUCGAAUUUUCGGCGGAUGCCUCCAAA [C8U U45C]	< 1e-05	< 1e-05	–	< 1e-05	< 1e-05
AUAAAAGUGCCAGAACUACAGAAAUGUAAUUGACGAGGAGGAGGUUUAUCGAAUUUUCGUCGGAUGCCUCCAAA [C8U G29A G60U]	< 1e-05	< 1e-05	< 1e-05	–	–
AUAAAAGUGCCAGAACUACAGAAAUGUAGUUGACGAGGAGGAGGUUUAUCGAAUUUUCCGCGGAUGCCUCCAAA [C8U G59C]	< 1e-05	< 1e-05	< 1e-05	–	< 1e-05
AUAAAAGUGCCAGAACUACAGAAAUGUAGUUGACGAGGAGGAGGUUUGUCGAAUUUUCGGCGGAUGCCUUCAAA [C8U A48G C70U]	< 1e-05	< 1e-05	< 1e-05	–	–
AUAAAAGUGCCAGAACUACAGAAAUGUAGUGGACGAGGAGGAGGUUUAUCGAAUUUUCGGCGGAUGCCUCCAAA [C8U U31G]	< 1e-05	< 1e-05	< 1e-05	< 1e-05	< 1e-05
AUAAAAGUGCCAGAACUACAGAAAUGUAGUUGACGAGGAGCAGGUUUAUCGAAUUUUCGGCGGAUGCCUCCAAA [C8U G41C]	< 1e-05	< 1e-05	< 1e-05	–	–
AUAAAAGUGCCAGAACUACAGAAAUGUAGUUGACGAGGAGGUGAUUUAUCGAAUUCUCGGCGGAUGCCUCCAAA [C8U A42U G44A U56C]	< 1e-05	–	–	–	–
AUAAAAGUGCCAGAACUACAGAAAUGUAGUUGCCGAGGAGGAGAUUUAUGGAAUUUUCGGCGGAUGCCUCCAAA [C8U A33C G44A C50G]	< 1e-05	< 1e-05	–	–	< 1e-05
AUAAAAGUGCCAGAACUACAGAAAUGUAGUUGACGCGGAGCAGGUUUAUCGAAUUUUCGGCGGAUGCCUCCAAA [C8U A36C G41C]	< 1e-05	–	–	–	–
